Test results: US11904004B2, “Anti-CD277 antibodies” (INSTITUT NATIONAL DE LA SANTE ET DE LA RECHERCHE MEDICALE …, priority 2010, dated 2024)

Key:
Vγ9/Vδ2 T cells = test: Cytolytic function, cytokine production and proliferation of Vγ9/Vδ2 T cells; format: cell-based
Text: Typically the activation of the cytolytic function of Vγ9/Vδ2 T cells may be measured according to the method described in example 3 (i.e. “Analysis of Vγ9Vδ2 T cell responses by direct cytotoxicity assay”, and for example the results “CD277 potentiate the anti-tumor cytolysis mediated by Vγ9Vδ2 T cells”). Examples of isolated anti-CD277 antibodies, which activate the cytolytic function, cytokine production and proliferation of Vγ9/Vδ2 T cells, are mAbs 20.1 or 7.2, or derivatives thereof.
Target cells were labelled with 20 μCi of 51Cr (PerkinElmer) for 1 h at 37° C. After washing target cells were incubated with effectors Vγ9Vδ2 T cells for 4 h at 37° C. in different ratio. Incubations were performed in presence of specific or isotype control mAbs or Fab fragments. The radioactivity released by target cells was measured, 4 h later, on beta plate counter. The percentage of specific 51Cr lysis was calculated using the following equation: percent specific lysis=100×[(test release)−(spontaneous release)]/[(maximal release)−(spontaneous release)].

Vγ9Vδ2 T cells = test: Stimulation and expansion assay of Vγ9Vδ2 T cells from PBMC; format: cell-based, human
Experimental: P815 (mouse mastocytoma cell line), K562 (chronic myeloid leukaemia cell line), Raji and Daudi (Burkitt lymphoma cell lines) were cultured in RPMI 1640 medium (Invitrogen) and 10% foetal calf serum (FCS) (Eurobio). The PBMC from healthy donors were distributed at 106/ml in 24-well culture plates at 37° C. in 5% CO2 in RPMI 1640 medium and 10% FCS. Polyclonal Vγ9Vδ2 T cells were specifically expanded with 3 μmol/l of Phosphostim (BrHPP molecule, Innate Pharma, Marseille, France) and 100 U/ml IL-2 (Chiron, Basel, Switzerland) for 12 days. Phosphostim was added once at the onset of the culture. Every 2 days, one-half of the culture medium volume was replaced with fresh medium containing 100 U/ml IL-2.
PBMC were plated and stimulated as described in the paragraph: cell lines and expansion of γδ T cells, except cells were stimulated with anti-CD277 mAbs (10 μg/ml); or control isotypes (10 μg/ml); and with or without BrHPP at different concentrations. […] Percentages of Vγ9Vδ2 were measured the first day and the last day of culture as described above. Expanded γδ T cells effectors were stimulated with or without different doses of BrHPP added in anti-CD277 mAbs at 10 μg/ml; or with OKT3 (4 ng/ml) associated with anti-BT3 19.5 mAb in different concentrations. Activation of degranulation was measured by CD107 labelling assay as described above.

NK cells = test: Functional assay on NK cells, redirected cytolytic activity; format: cell-based, human
Experimental: Fresh NK cells were sorted with EASY SEP® negative selection kit and incubated over night in medium completed with sub-optimal concentrations of IL-2 (100 U/ml) and IL-15 (10 ng/ml). NK cell receptors functions were tested in re-directed cytolytic experiments against the FcγR positive P815 mastocytoma murine cell line. Briefly, effector cells were incubated with P815 cells pre-coated for 30 minutes with the mAb of interest (irrelevant mouse IgG1: 11 μg/ml, anti-NKp46: 1 μg/ml, anti-DNAM: 5 μg/ml, anti-CD277 20.1: 10 μg/ml) according to a 1:1 Effector:Target (E/T) ratio. Cytotoxic tests were performed in 4-hours assays in the presence of GOLGISTOP® (protein transport inhibitor) and soluble CD107 (a&b)-FITC (both from BD Biosciences), afterward cells were stained for surface markers (CD56-PeCy7 (Beckman Coulter, Immunotech), fixed and permeabilized (CYTOFIX/CYTOPERM®) then stained with intracellular mAb (IFN-γ (Beckman Coulter, Immunotech)). Cells were finally re-suspended in PBS 2% para-formaldehyde and extemporaneously analyzed on a BD FACS CANTO® (BD Biosciences, San Jose, Calif.). The degree of activation of NK cells was measured based on the percentage of cells positive for CD107a and CD107b (degranulation) and/or the production of inflammatory cytokine (IFN-γ).

[1] = with anti-NKp46 or anti-CD16, data not shown

B1: mAb 20.1: murine anti-CD277 antibody obtainable from the hybridoma CNCM I-4402; agonist (antibody, V domains shown)
VH: QVQLQQSGAELVKPGASVKLSCKASGYTFTRYYLYWVKQRPGQGLEWIGEINPNNGGTKFNEKFKSKATLTVDKSSRTTYIQLSSLTSEDSAVYYCSREDDYDGTPDAMDYWGQGTAVTVSS
VL: DIQMNQSPSSLSASLGDTITITCHASQNINLWLSWYQQRPGNIPKLLIYRASNLHTGVPSRFSGSGSATGFTLTISSLQPEDIATYYCQQGHSYPYTFGGGTKLDIK
cytolytic function, cytokine production and proliferation of Vγ9/Vδ2 T cells (Vγ9/Vδ2 T cells): activate | proliferation of Vγ9Vδ2 cells (CFSE) (Vγ9Vδ2 T cells; PBMC + IL-2): associated with the proliferation | expansion of Vγ9Vδ2 T cells (Vγ9Vδ2 T cells; PBMC + IL-2, 15 days of culture): expanded | NK cell stimulation by CD277 mAb alone (NK cells; P815 redirected assay): did not have any effect | NK cell IFN-γ secretion, co-stimulation of NKp46 or CD16 (NK cells; [1]): not affected | NK cell cytotoxicity, co-stimulation of NKp46 or CD16 (NK cells; [1]): not affected
